Data reported in article PMC4374960 (2015).

B1: CarDNt, the 179-residue N-terminal domain of Myxococcus xanthus CarD (in pKT25) [Myxococcus xanthus] / Mxβ_(19–148), M. xanthus RNA polymerase β subunit fragment spanning residues 19 to 148 (in pUT18C) [Myxococcus xanthus] (parent complex)
chain 1: MPEGSASLQLAVGDRVVYPNQGVCRVSAIDVKEVAGQKLTFVTMRREEDGAVVMVPEGKVLAIGVRKVASAEDVEAIFTFLRSDSDKADLDWKQRARTNLDRMTQGGIMGLAEVVKGLQVLSELRPLPTKERELYDNARHLLVTEVAAALGTAEVNAEDAIDIVLFPPGRERPKRTAAE
chain 2: AKIIDIPNLINIQKQSYEKFLQADIAADKREDLGLQGVFKSVFPIRDFNETSSLEFVSYHLERPKYDVDECHQRGMTYSAPIKVVVRLVVWDKDEETGAQSIRDVKEQEVYFGEIPLMTQNGTFIINGTE

Variants of: B1
Experiment: BACTH analysis (β-Gal activity); Mxβ19–148 mutants in pUT18C; CarDNt in pKT25; mean and standard error of three independent experiments; parent: 2.6e+03; read off a plot
Variant chain 2 D104A has a response of roughly 1800. chain 2 E107A gave a response of roughly 90. chain 2 K106A gave a response of roughly 2100. chain 2 V105A showed a response of roughly 610.

Variants of: B1
Experiment: BACTH analysis (β-Gal activity); CarDNt mutants in pKT25; Mxβ19–148 in pUT18C; mean and standard error of three independent experiments; parent: 2.7e+03; read off a plot
Variant chain 1 P56A has a response of roughly 230. Work on chain 1 F41A yielded a response of roughly 130. With chain 1 M54A the response was roughly 130.
